This is an account of results in publication PMC10326071.

Data set [1] addresses middle domain of human Paip1 (Paip1M, residues 78-296) (human) (UniProt Q9H074). Description: BLI; […]; association 30 s, dissociation 80 s; 25 C; global fit, 1:1 model.
For data set [2], the target named is middle domain of human poly(A)-binding protein-interacting protein 1 (Paip1M, residues 78-296) (human) (UniProt Q9H074). Description: BLI; […]; 1×PBS pH 7.4, 0.1% surfactant P20, 0.1% BSA, 500 mM NaCl; 25 °C; global fit, 1:1 model. For orientation: In BLI a coated tip is dipped into the sample, and binding shifts an interference pattern.
Data set [3] addresses T1, SARS-CoV-2 SUD-core (SARS-CoV-2, UniProt P0DTD1 1231-1494). Description: EMSA; no compound. The settings on record: protein: recombinant; tags: N-terminal 6xHis; label: none stated; SYBR-Gold stain; G4 (predicted).
The target of data set [4] is T1, SARS-CoV-2 SUD-core. Description: BLI. The note with it: protein: recombinant; tags: N-terminal 6xHis; G4.
In data set [5] the target is SARS-CoV SUD-core (SARS-CoV, UniProt P0C6X7 1207-1470). Description: BLI. The note with it: protein: recombinant; tags: N-terminal 6xHis; G4.
The target of data set [6] is T1, SARS-CoV-2 SUD-core. Description: BLI; Fig. 2C titration. The settings on record: protein: recombinant; tags: N-terminal 6xHis; G4.

Chain of middle domain of human Paip1 (Paip1M, residues 78-296) (human) (Q9H074 157-375): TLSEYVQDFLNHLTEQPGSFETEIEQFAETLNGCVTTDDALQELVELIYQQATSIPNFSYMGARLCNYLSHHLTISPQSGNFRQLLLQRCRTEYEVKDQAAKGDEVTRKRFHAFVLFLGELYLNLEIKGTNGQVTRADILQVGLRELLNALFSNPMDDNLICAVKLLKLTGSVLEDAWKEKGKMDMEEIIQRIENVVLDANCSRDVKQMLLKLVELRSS
Chain of middle domain of human poly(A)-binding protein-interacting protein 1 (Paip1M, residues 78-296) (human) (Q9H074 157-375): as above

As for “SARS-CoV-2 SUD-core (nsp3 residues 413-676) (domain or fragment)”, the off-rate constant (koff) – broadly, the rate constant with which the complex falls apart – in data set [1] was determined as 0.0055 s⁻¹.
“SARS-CoV SUD-core (nsp3 389-652) (domain or fragment)” yielded a koff in data set [1] of 0.0066 s⁻¹. For the same molecule, the dissociation constant (Kd) (in general, the concentration at which binding is half-saturated) in data set [2] was determined as 4400 nM.
With GGCUUAUAGGUUUAAUGGUAUUGG (structured_RNA) [G4-24268 (EMSA)], the binding result in data set [3] is on record as “binds”.
Take CGGGAGGGCGGGGAGGGC (structured_RNA) [G4-TRF2 (BLI)]: the Kd in data set [4] came out at 35.8 nM; in data set [5] it was 17 nM; in data set [6], 170 nM.
